# Source: US20210380678A1 (SURROZEN OPERATING, published 2021)
# Residue numbers refer to the chain shown, from its start. Names may count otherwise.
# T1: Fc portion of human IgG1-fused LGR5-ECD (R&D systems) (human, UniProt O75473 22-557, limits assumed)
# T1 construct: extracellular domain; Bought reagent; also called LGRS; recombinant LGR5 protein; not shown: Fc portion of human IgG1
# T1 sequence (looked up): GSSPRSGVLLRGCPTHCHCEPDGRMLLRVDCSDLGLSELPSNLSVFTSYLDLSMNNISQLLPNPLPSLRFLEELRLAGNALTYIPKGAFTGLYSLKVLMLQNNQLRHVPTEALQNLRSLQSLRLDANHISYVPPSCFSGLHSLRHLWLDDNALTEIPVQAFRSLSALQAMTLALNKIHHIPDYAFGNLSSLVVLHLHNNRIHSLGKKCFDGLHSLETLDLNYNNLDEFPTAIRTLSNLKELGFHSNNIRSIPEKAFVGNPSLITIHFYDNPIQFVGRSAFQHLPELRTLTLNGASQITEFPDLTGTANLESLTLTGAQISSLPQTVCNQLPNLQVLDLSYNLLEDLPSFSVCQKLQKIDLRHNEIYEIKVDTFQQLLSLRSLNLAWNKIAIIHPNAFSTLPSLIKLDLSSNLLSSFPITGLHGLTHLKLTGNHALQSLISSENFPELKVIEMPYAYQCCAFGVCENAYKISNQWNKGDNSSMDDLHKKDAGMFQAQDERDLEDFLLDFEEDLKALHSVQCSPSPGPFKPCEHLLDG
# T2: human RNF43 extracellular domain (hRNF43 ECD) (human, UniProt Q68DV7 44-197, biotinylated (His-Avi tag))
# T2 construct: Expressed with a His-Avi tag at the N-terminus and biotinylated; also called human RNF3 (Q44-D198)
# T2 sequence: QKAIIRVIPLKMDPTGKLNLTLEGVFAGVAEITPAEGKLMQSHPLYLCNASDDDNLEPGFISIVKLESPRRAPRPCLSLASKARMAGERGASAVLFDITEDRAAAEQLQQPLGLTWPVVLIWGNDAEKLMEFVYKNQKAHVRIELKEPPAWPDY
# T3: human ZNRF3 extracellular domain (hZNRF3 ECD) (human, UniProt Q9ULT6 56-219, biotinylated (His-Avi tag))
# T3 construct: Expressed with a His-Avi tag at the N-terminus and biotinylated; also called ZRNF3
# T3 sequence: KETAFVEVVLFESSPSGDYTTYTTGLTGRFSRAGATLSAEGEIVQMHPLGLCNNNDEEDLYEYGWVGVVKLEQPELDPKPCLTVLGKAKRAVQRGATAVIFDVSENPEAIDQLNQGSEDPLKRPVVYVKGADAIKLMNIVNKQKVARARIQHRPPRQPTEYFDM
# T4: human ASGR1 extracellular domain (hASGR1 ECD) (human, UniProt P07306 62-291, biotinylated (His-Avi tag))
# T4 construct: His-Avi tag at the N-terminus, biotinylated for BLI; also called human ASGR1 ECD
# T4 sequence: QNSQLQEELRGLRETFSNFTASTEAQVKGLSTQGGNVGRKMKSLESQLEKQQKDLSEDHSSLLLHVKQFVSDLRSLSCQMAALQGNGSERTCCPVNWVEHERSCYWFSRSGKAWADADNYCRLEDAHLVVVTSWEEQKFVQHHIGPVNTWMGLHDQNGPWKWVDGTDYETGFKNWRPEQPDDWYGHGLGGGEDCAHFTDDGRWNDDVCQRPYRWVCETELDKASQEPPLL
# B1: αTFR1-RSPO2-RA (anti-TFR1, RSPO2 (F105R/F109A)) (other)
# chain: QVQLQQSGPELVRPGVSVKISCKGSGYTFTDYAMHWVKQSHAKSLEWIGGISTYFGRTNYNQKFKGRATMTVDKSSSTAYMELARLTSEDSALYYCARGLSGNYVMDYWGQGTSVTVSSGGGGSGGGGSGGGGSDIVLFQSPASLAVSLGQRATISCRASESVDDYGNSFMHWYQQKPGQPPKLLIYRASNLESGIPARFSGSGSRTDFTLTINPVEADDVATYYCQQSNEAPPTFGGGTKLEIRGSGGSNPICKGCLSCSKDNGCSRCQQKLFFFLRREGMRQYGECLHSCPSGYYGHRAPDMNRCARCRIENCDSCRSKDACTKCKVGFYLHRGRCFDECPDGFAPLEETMECVEGGDYKDDDDKGSHHHHHHHH
# notes: FLAG-His tag; also called αTFR-RSPO2-RA
# B2: αTFR1-RSPO2-WT (anti-TFR1, RSPO2 wild type) (other)
# chain: B1 chain with R319F, A323F
# B3: αTFR1-RSPO2-5mut (anti-TFR1, RSPO2 (R65A/R69A/Q70A/F105A/F109A)) (other)
# chain: B1 chain with R279A, R283A, Q284A
# notes: FLAG-His tag; also called αTFR1-RSPO2-Smut; αTFR-RPOS-5mut
# B4: 024S-D03 Fab (Fab, V domains shown)
# VH: QVQLQQSGPGLVKPSQTLSLTCAISGDSVSSNSAAWNWMRQSPSRGLEWLGRTYYRSKWYNDYAVSVKSRMTINPDTSRNQFSLQLNSVTLEDTAVYYCARWNHEEHYFDYWGQGTLVTVSS
# VL: EIVLTQSPATLSFSPGERATLSCRASQSVGSYLAWYQQRPGQAPRPLIYDATNRATGIPTRFSGSGSGTDFTLTISSLEPEDFATYYCQHRRTFGRGTKLEIK
# notes: Tested as Fab, identified by phage display
# B5: 024S-A04 Fab (Fab, V domains shown)
# VH: QVQLQQSGPGLVKPSQTLSLTCAISGDSVSSNSVAWNWMRQSPSRGLEWLGRTYYRSKWYYDYAVSVKSRITINPDTSKNQFSLQLNSVTPEDTAVYYCASWTRGAFDIWGQGTMVTVSS
# VL: B4 VL with E1D, V3Q
# notes: as for B4
# B6: 024S-E03 Fab (Fab, V domains shown)
# VH: B4 VH with D27A, M39I, M71I, R79K, L91P, E92G
# VL: B4 VL with E1D, I2V, L4M
# notes: as for B4
# B7: 020S-F07 (antibody, V domains shown)
# VH: EVQLLESGGGLVQPGGSLRLSCAASGFTFSNYAMGWVRQAPGKGLEWVSYISRSSSTIYYADSVKGRFTISRDNSKNTLYLQMNSLRAEDTAVYYCARRRDGYNWGYWGQGTLVTVSS
# VL: DIQMTQSPSSLSASVGDRVTITCRASQDISNSLNWYQQKPGKAPKLLIYAASTLQSGVPSRFSGSGSGTDFTLTISSLQPEDFATYYCQQSYSPPHTFGGGTKVEIK
# B8: 028S-E10 (antibody, V domains shown)
# VH: QVQLVQSGAEVKKPGASVKVSCKASGYTFTSYYMHWVRQAPGQGLEWMGWINPNTGGTKSAQKFQGRVTMTRDTSTSTVYMELSSLRSEDTAVYYCARVLRGSLGFDYWGQGTLVTVSS
# VL: B7 VL with N31R, S32Y, N34A, L54V, Q55E, S93R, P94S, H96Y, G100Q, V104L
# B9: 020S-D07 (antibody, V domains shown)
# VH: QVQLVQSGAEVKKPGSSVKVSCKASGGTFSNTDINWVRQAPGQGLEWMGGIIPIFGTANYAQKFQGRVTITADESTSTAYMELSSLRSEDTAVYYCVGGRSGWIWYFDLWGRGTLVTVSS
# VL: DIQMTQSPSSLSASVGDRVTITCRASQSISRWLAWYQQKPGKAPKLLIYDASSLETGVPSRFSGSGSGTDFTLTISSLQPEDFATYYCQQAYSFPWTFGQGTKVEIK
# B10: αGFP-RSPO2-5mut (anti-GFP, RSPO2 (R65A/R69A/Q70A/F105A/F109A)) (other)
# chain: QVQLVESGGGLVQPGGSLRLSCAASGFTFSRYGMHWVRQAPGKGLEWVSGISSIGSNTYYADSVKGRFTISRDNSKNTLYLQMNSLRAEDTAVYYCARWYKTYIDVWGQGTLVTVSSGGGGSGGGGSGGGGSDIELTQPPSVSVAPGQTARISCSGDNLGKKYVYWYQQKPGQAPVLVIYGDDERPSGIPERFSGSNSGNTATLTISGTQAEDEADYYCASYDSSHILIVFGGGTKLTVLGSGGSNPICKGCLSCSKDNGCSRCQQKLFFFLRAEGMAAYGECLHSCPSGYYGHRAPDMNRCARCRIENCDSCRSKDACTKCKVGFYLHRGRCFDECPDGFAPLEETMECVEGGDYKDDDDKGSHHHHHHHH
# notes: scFv against GFP fused to the RSPO2 Fu1-Fu2 fragment with five mutations; FLAG-His tag; also called αGFP-RSPO2-Smut
# B11: αGFP-RSPO2-RA (anti-GFP, RSPO2 (F105R/F109A)) (other)
# chain: B10 chain with A274R, A278R, A279Q
# notes: scFv against GFP fused to the RSPO2 Fu1-Fu2 fragment with F105R/F109A; FLAG-His tag
# What was measured:
# [1] = target: human transferrin receptor 1 (TFR1), on cells (human, UniProt P02786 1-760); assay: cell-based or functional assay
# [2] = target: T1, Fc portion of human IgG1-fused LGR5-ECD …; assay: BLI (Octet), LGR5-ECD-Fc on AHC sensor
# Procedure: (§1) Affinity measurement: Binding kinetics of the RSPO-derived proteins to LGRS, RNF43, or ZNRF3, and binding of the anti-ASGR Fabs to human and/or mouse ASGR1 were determined by bio-layer interferometry (BLI) using Octet Red 96 (PALL ForteBio, Fremont, CA) instruments at 30° C., 1000 rpm with either streptavidin (SA) or anti-hIgG Fc capture (AHC) biosensors. […] Following capture of ECDs of RNF43, ZNRF3 or LGRS, the biosensors were dipped into wells containing the relevant test molecules at 7 different concentrations in running buffer plus a well with only running buffer as a reference channel. KD was determined by steady-state analysis based on the average responses between 140 to 145 seconds of association phase, for binding to LGRS, RNF43, and ZNRF3. For the binding to ASGR, KD was determined by curve model fitting using the Octet® Red data analysis software (Fortebio)
# [3] = target: T2, human RNF43 extracellular domain …; assay: BLI (Octet), biotinylated RNF43 ECD on SA sensor
# Procedure: as §1
# [4] = target: T3, human ZNRF3 extracellular domain …; assay: BLI (Octet), biotinylated ZNRF3 ECD on SA sensor
# Procedure: as §1
# [5] = target: T4, human ASGR1 extracellular domain …; assay: BLI, Fab on hASGR1; KD only in the figure
# [6] = target: T2, human RNF43 extracellular domain …; assay: ELISA (binding specificity)
# [7] = target: T3, human ZNRF3 extracellular domain …; assay: ELISA (binding specificity)
# [8] = target: T3, human ZNRF3 extracellular domain …; assay: BLI (Octet) KD grade: * = KD >= 1 uM
# Procedure: (§2) Binding characterization of recombinant Fabs or IgG' s was carried out using Bio-Layer Interferometry (BLI) using the Octet Red 96 platform (PALL ForteBio, Fremont, Calif.) with streptavidin (SA) coated biosensors (PALL ForteBio,). […] Following immobilization, sensors were dipped into samples containing test molecules at seven concentrations. Values for KD were determined by fitting the resulting data with a 1:1 binding model.
# [9] = target: T3, human ZNRF3 extracellular domain …; assay: BLI (Octet), biotinylated antigen on SA sensor, 1:1 fit
# Procedure: as §2
# Chain of human transferrin receptor 1 (TFR1), on cells (P02786 whole entry, the tested form may be a part): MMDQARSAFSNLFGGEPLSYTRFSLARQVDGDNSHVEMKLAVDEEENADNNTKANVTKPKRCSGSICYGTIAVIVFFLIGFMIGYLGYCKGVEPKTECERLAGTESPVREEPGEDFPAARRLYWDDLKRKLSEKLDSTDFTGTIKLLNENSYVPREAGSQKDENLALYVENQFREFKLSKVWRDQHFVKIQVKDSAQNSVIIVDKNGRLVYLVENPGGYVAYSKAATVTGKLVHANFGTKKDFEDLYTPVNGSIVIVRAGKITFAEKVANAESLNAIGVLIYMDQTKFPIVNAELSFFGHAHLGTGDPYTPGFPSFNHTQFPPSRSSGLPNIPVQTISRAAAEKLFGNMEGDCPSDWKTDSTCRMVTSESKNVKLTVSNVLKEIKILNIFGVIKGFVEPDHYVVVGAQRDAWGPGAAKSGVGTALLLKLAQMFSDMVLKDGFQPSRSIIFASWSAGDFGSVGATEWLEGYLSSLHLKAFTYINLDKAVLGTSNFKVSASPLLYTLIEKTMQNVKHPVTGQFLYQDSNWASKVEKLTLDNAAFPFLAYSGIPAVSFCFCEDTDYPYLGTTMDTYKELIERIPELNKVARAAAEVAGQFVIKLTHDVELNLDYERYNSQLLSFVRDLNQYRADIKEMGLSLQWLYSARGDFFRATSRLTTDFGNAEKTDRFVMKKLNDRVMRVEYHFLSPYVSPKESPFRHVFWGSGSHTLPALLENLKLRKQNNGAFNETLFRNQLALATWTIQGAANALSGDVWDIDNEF
binder,measurement,setting,value
B1,potency in the HEK293 STF reporter assay with Wnt sources,[1],~20 fold
same,binding result,[2],no binding
B2,EC50 in the HEK293 STF reporter assay with Wnt sources,[1],~20 fold
same,potency in the HEK293 STF reporter assay with Wnt sources,[1],~400 fold
B3,binding result,[2],no binding
same,binding result,[3],no binding
same,binding result,[4],no binding
B4,binding result,[5],binds
B5,binding result,[5],binds
B6,binding result,[5],binds
B7,binding result,[6],binds
same,binding result,[7],binds
B8,KD,[8],≥ 1 µM
same,Kd,[9],4.16 µM
B9,binding result,[6],binds
same,binding result,[7],binds
B10,binding result,[2],no binding
B11,binding result,[2],no binding
same,binding result,[3],binds
same,binding result,[4],binds
